Starred links: 1 amine or outer side, 2 acyl side, 3 side chain; linkers in the order of their positions; H or OH if unused. Positions of bridges follow the written chain, without caps; N, C: chain ends. Non-standard residues stand in square brackets, D forms with d. Primed or numbered codes have the meaning given here. PyrS2″ = (S)-3-amino-1-((pent-4-en-1-yloxy)carbonyl)pyrrolidine-3-carboxylic acid (stapling residue), C=CCCCOC(=O)N1CC[C@@](N[*:1])(C(=O)[*:2])C1; RdN″ = (R)-4-(((allyloxy)carbonyl)(methyl)amino)-2-amino-2-methylbutanoic acid (stapling residue), C=CCOC(=O)N(C)CC[C@@](C)(N[*:1])C(=O)[*:2]; B5(16) = 2-amino-2-(pent-4-en-1-yl)hept-6-enoic acid = 2,2-bis(4-pentenyl)glycine (stitching residue), C=CCCCC(CCCC=C)(N[*:1])C(=O)[*:2]; B5(4) = 2,2-bis(4-pentenyl)glycine = 2-amino-2-(pent-4-en-1-yl)hept-6-enoic acid (stitching residue), C=CCCCC(CCCC=C)(N[*:1])C(=O)[*:2]; B5(3) = 2,2-bis(4-pentenyl)glycine (stitching residue), C=CCCCC(CCCC=C)(N[*:1])C(=O)[*:2]; Phe(3-COOH) = N[C@@H](Cc1cccc(C(=O)O)c1)C(=O)O; 2F3MeF = Cc1cccc(C[C@H](N[*:1])C(=O)[*:2])c1F; S7 = C[C@@](CCCCCC=[*:3])(N[*:1])C(=O)[*:2]; Phe(2-Cl) = N[C@@H](Cc1ccccc1Cl)C(=O)O; Bta = N[C@@H](Cc1csc2ccccc12)C(=O)O; αAllylPro = C=CC[C@@]1(C(=O)O)CCCN1; tBuAla = CC(C)(C)C[C@H](N)C(=O)O
T1: Bcat-Halo (UniProt P35222 1-781, HaloTag NanoBRET 618 Ligand bound to the Halo part)
T1 construct: Expressed in transfected HEK293 cells (NanoBRET acceptor construct); also called beta-catenin HaloTag fusion; not shown: HaloTag
T1 sequence (looked up): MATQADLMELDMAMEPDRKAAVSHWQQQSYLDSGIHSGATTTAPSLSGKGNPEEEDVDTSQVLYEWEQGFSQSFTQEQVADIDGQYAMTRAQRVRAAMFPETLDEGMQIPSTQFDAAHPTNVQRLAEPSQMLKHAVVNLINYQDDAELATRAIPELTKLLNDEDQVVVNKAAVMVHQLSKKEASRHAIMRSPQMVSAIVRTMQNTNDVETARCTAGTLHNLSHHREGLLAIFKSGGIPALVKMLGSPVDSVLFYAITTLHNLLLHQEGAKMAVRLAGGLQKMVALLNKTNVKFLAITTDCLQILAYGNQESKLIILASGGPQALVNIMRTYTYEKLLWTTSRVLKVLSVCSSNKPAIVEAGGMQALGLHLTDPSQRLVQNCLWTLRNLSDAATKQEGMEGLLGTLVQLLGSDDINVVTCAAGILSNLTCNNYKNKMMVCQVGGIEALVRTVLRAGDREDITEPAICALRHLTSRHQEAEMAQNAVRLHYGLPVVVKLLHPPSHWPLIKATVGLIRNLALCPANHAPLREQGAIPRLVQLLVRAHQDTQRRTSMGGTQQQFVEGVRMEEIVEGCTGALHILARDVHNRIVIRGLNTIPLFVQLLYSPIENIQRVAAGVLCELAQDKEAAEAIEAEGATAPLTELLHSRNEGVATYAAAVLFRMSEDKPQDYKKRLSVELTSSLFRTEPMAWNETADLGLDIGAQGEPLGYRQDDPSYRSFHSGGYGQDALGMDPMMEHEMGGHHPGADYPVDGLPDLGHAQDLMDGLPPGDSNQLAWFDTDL

T2: full-length beta-Catenin (Uniprot ID P35222) (Homo sapiens (Human), UniProt P35222 2-781)
T2 construct: Used at 10 nM in the FP probe solution as 'full-length'; Also used here for the endogenous beta-catenin of the DLD1 TCF/LEF reporter cells (functional rows); also called bCat; B-Catenin
T2 sequence: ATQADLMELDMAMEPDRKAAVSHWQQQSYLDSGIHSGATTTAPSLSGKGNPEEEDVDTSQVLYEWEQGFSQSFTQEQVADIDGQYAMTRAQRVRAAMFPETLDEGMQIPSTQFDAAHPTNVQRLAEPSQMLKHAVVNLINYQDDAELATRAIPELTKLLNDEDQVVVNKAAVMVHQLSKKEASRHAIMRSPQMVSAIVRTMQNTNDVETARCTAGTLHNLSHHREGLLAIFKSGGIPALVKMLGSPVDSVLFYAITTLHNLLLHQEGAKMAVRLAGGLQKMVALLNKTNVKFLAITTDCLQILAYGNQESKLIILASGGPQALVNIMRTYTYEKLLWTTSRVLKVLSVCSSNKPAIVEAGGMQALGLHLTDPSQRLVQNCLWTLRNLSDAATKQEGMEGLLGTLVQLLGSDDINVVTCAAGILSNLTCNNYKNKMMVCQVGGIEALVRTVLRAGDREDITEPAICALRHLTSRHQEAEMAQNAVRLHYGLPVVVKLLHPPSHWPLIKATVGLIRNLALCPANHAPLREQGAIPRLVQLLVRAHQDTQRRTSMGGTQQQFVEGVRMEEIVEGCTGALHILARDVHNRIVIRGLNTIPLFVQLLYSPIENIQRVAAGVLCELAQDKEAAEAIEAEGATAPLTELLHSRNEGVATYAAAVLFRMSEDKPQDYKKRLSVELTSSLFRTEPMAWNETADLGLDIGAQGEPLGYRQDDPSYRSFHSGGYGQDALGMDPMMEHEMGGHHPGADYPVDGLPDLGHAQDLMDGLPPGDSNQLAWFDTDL

T3: beta-catenin in DLD1 TCF/LEF luciferase reporter cells (UniProt P35222 2-781)
T3 sequence (looked up): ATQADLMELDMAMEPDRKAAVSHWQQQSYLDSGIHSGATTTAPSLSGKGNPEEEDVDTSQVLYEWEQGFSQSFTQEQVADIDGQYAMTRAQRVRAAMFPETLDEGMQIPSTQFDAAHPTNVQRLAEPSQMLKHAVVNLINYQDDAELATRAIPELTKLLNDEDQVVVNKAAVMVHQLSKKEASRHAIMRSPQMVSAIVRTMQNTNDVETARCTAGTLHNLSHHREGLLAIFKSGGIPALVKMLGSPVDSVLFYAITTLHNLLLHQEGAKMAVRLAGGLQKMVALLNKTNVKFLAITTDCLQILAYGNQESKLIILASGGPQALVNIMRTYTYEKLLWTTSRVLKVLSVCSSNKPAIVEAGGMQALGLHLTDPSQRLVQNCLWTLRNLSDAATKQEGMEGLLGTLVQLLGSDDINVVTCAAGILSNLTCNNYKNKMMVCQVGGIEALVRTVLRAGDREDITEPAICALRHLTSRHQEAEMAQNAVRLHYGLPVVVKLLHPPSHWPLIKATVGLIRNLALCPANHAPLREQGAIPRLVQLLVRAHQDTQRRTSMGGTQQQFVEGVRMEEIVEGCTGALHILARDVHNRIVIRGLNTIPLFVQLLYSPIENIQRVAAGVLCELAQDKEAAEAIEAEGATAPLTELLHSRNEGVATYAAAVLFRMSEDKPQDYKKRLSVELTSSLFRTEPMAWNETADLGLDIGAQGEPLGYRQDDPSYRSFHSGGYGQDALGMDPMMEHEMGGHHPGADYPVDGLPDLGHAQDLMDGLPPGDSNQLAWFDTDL

T4: B-cat-Halo (beta-catenin HaloTag construct expressed in HEK293 cells) (UniProt P35222 1-781)
T4 sequence (looked up): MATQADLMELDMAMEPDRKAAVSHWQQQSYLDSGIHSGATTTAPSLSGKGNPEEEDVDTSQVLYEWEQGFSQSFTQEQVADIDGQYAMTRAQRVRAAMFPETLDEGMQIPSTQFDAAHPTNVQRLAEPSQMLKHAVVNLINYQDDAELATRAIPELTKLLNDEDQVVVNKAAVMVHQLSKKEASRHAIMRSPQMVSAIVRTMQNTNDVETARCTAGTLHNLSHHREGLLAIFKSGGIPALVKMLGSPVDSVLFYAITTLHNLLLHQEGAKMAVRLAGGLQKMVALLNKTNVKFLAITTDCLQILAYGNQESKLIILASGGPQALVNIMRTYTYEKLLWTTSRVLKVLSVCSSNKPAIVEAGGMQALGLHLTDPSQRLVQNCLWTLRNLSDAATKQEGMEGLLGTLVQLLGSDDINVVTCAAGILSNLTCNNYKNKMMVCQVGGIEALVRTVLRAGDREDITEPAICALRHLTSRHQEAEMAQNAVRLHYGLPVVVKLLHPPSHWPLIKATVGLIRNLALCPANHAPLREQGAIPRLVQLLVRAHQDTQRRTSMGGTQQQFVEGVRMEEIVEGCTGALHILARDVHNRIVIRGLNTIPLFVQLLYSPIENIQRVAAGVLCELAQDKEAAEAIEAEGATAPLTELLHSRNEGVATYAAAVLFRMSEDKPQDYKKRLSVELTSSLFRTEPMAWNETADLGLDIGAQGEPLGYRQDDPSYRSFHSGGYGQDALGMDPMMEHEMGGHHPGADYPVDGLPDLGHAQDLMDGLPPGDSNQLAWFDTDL

T5: beta-catenin in DLD1 TCF/LEF luciferase reporter cells (Homo sapiens (Human), UniProt P35222 1-781)
T5 sequence: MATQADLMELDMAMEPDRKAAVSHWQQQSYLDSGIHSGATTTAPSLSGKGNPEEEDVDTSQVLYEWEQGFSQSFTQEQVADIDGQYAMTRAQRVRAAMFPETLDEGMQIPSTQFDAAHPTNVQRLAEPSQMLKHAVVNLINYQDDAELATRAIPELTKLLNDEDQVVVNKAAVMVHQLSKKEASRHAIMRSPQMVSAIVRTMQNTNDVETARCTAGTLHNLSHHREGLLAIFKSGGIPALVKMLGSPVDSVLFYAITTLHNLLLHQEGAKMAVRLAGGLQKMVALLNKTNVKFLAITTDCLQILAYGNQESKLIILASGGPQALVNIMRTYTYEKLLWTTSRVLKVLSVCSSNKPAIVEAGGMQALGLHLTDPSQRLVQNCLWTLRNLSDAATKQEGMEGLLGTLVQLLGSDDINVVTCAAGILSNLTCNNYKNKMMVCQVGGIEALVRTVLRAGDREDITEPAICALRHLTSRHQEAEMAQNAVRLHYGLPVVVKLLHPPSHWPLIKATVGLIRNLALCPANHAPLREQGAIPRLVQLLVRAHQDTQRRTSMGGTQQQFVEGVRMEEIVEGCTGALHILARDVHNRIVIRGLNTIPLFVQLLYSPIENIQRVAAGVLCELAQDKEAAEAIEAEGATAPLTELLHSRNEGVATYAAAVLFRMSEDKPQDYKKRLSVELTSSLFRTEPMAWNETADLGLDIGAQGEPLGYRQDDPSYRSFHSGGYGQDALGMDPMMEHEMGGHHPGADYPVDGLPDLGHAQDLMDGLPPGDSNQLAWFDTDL

T6: full-length beta-Catenin (Uniprot ID P35222) (Homo sapiens (Human), UniProt P35222 2-781)
T6 construct: also called bCat; B-Catenin
T6 sequence: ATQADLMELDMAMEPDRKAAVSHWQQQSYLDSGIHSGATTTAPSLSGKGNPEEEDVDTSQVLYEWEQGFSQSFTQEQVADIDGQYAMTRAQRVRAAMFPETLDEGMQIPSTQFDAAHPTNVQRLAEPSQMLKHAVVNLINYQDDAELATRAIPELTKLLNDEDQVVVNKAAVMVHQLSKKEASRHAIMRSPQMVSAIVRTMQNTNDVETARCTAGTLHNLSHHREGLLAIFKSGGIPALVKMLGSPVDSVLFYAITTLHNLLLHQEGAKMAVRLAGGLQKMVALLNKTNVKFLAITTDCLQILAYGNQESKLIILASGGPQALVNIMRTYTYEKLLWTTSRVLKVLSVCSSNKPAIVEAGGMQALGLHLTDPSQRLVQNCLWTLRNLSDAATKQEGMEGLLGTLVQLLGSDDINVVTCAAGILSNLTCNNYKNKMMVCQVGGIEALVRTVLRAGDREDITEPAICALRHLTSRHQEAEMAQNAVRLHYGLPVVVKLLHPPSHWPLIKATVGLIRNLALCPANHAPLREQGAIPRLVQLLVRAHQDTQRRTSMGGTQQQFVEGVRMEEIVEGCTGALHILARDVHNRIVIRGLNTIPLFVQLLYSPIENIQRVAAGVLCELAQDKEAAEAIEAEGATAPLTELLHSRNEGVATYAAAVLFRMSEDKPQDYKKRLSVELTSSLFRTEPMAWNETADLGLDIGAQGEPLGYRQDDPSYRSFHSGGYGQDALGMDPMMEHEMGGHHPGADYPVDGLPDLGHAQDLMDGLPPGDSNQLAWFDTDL


Legend:
Bcat-Halo = biological target: T1, Bcat-Halo; experiment: NanoBRET Abs IC50, HEK293 cells transfected with Bcat-Halo and TCF4-Luc (competitor: TCF4-Luc); cellular assay
[1] = biological target: T2, full-length beta-Catenin (Uniprot ID …); experiment: fluorescence polarization competition; 10 nM full-length beta-catenin + 10 nM 5FAM-TCF4 10-53 as competitor probe
Experimental: (§1) The plate was incubated protected from light for 60 minutes at 20° C. prior to read. Reads were performed on a CLARIOstar plate reader (BMG Labtech) in duplicate, and data were fitted to a 1:1 binding model with hill slope using an in-house script. All provided concentrations are final concentrations.

[2] = biological target: T3, beta-catenin in DLD1 TCF/LEF luciferase …; experiment: cell-based or functional assay
[3] = biological target: T4, B-cat-Halo (beta-catenin HaloTag …); experiment: cell-based or functional assay
[4] = biological target: T5, beta-catenin in DLD1 TCF/LEF luciferase …; experiment: cell-based or functional assay
[5] = biological target: T6, full-length beta-Catenin (Uniprot ID …); experiment: fluorescence polarization competition; peptide titrated against 10 nM full-length beta-catenin with 10 nM 5FAM-TCF4(10-53) probe
Experimental: as §1

IC50 (Bcat-Halo) | EC50 [1] | Binder | other results
> 20000 nM | 8 nM | Ac-[αAllylPro]DF[B5(16)]DDAAFN[PyrS2″][Phe(2-Cl)][Bta]Q-NH2 (staple 1-4, 4-11, Stapled (stitched) peptide composition) [I-1041] | 
28400 nM | 5 nM | Ac-[αAllylPro]DF[B5(4)]DDAAFN[PyrS2″][Phe(2-Cl)][Bta]S-NH2 (staple 1-4, 4-11, Stapled (stitched) peptide composition) [I-1047] | 
23900 nM | 5 nM | Ac-[αAllylPro]DF[B5(16)]DDAAFS[PyrS2″][Phe(2-Cl)][Bta]Q-NH2 (staple 1-4, 4-11, Stapled (stitched) peptide composition) [I-1045] | 
 |  | Ac-[αAllylPro]D[tBuAla][B5(4)]D[Phe(3-COOH)]QAFL[PyrS2″][2F3MeF][Bta]A-NH2 (staple 1-4, 4-11) [I-2057] | DLD1 4% Abs IC50 [2]: 4000 nM; NanoBRET Abs IC50 [3]: 1500 nM
 |  | Ac-[αAllylPro]D[tBuAla][B5(3)]D[Phe(3-COOH)]AAFL[PyrS2″][Phe(2-Cl)][Bta]NAA[dA]-NH2 (staple 1-4, 4-11) [I-2041] | DLD1 4% Abs IC50 [4]: 1900 nM
 |  | Ac-ADI[RdN″]DEAAFQ[S7]FWH-NH2 (staple 4-11, This is the later eluting staple isomer composition) [I-67: Ac-Ala-Asp-Ile-RdN-Asp-Glu-Ala-Ala-Phe-Gln-S7-Phe-Trp-His-NH2 (stapled peptide)] | IC50 [5]: 1230 nM
